Assay: yeast display, Sf9 membrane polyspecificity reagent, FACS + sequencing; frameworks hold sequencing errors
Method in brief: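 In a synthetic yeast display library (Saccharomyces cerevisiae BJ5465), nanobody expression was induced with galactose for 36–48 hours. FACS gates were set low and high (top ~1%) using anti-HA fluorescence for expression and streptavidin fluorescence for binding of the Sf9 membrane reagent. Each polyreactivity label is drawn from the gate of origin.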
With “QVQLVESGGGLVQAGGSLRLSCAASGFIFGTNTMGWYRQEPGKERELVAAITSVGSTNYADSVKGRFTISRDNAKNTVYLLMNSLKPEDTAVYYCPATLYYQYGGDYWGQGTQVTVSS” the “polyreactivity (PSR sort gate)” value was “low polyreactivity”.
For “QVQLVESGGGLVQAGGSLRLSCAASGFIFGVYAMGWYRQAPGKEREFVAAISWTGGSTSYADSVKGRFTISRDNAKNTVYLQMNSLKPEDTAVYYCARRRSYKRRFDYWGQGTQVTVSS”, the “polyreactivity (PSR sort gate)” value was “low polyreactivity”.
For “QVQLVESGGGLVQAGGSLRLSCAASGFIFGYKARGWYRQAPGKERELVAAISSSGGSTYYADSVKGRFTISRDNAKNTVYLQMKSLKPEDTAVYYCAARPVALRKYYYWGQVTQVTVSS”, the “polyreactivity (PSR sort gate)” value was “low polyreactivity”.
In the case of “QVQLVESGGGLVQAGGSLRLSCAASGFIFGYNAMGWYRQAPGKERELVAAISSSGGSTYYADSVKGRFTISRDNAKNTVYLQMNSLKPEDTAVYYCAAESLTGYAHYDYWGQGTQVTVSS”, the “polyreactivity (PSR sort gate)” value is reported as “low polyreactivity”.
With “QVQLVESGGGLVQAGGSLRLSCAASGFIFGYNGMGGYRQAPGKERELVAGITYSDGSTYYADSVKGRFTISRDNAKNTVYLQMNSLKPEDTAVYYCAVDVIYYWAEDYDYWGQGTQVTVSS” the “polyreactivity (PSR sort gate)” value was “low polyreactivity”.
For “QVQLVESGGGLVQAGGSLRLSCAASGFIFGYNVKGWYRQAPGKERELVAAISSRGSSTYYADSVKGRFSISRDNAKNTVYIQMNSLKPEDTAVYYCAAYSSYNSWVSRRYGHDYWGQGTQVTVSS”, the “polyreactivity (PSR sort gate)” value was “high polyreactivity”.
With “QVQLVESGGGLVQAGGSLRLSCAASGFIFGYYAMGLYRQAPVKERELVAAITSGTGTNYADSVKGRFTISRDNAKNTVYLQMNSLKPEDTAVYYCAAYYTWLSEFGYWGQGTQVTVSS” the “polyreactivity (PSR sort gate)” value was “low polyreactivity”.
In the case of “QVQLVESGGGLVQAGGSLRLSCAASGFIFGYYAMGWYRQAPGKERELVAAISGDAGRTYYADSVKGRFTISRDNAKNTVYLQMNSLKAEDTAVYYCAAADTYKMDYWGQGTQVTVSS”, the “polyreactivity (PSR sort gate)” value is reported as “low polyreactivity”.
With “QVQLVESGGGLVQAGGSLRLSCAASGFIFGYYAMGWYRQAPGKERELVAAISGDAGRTYYADSVKGRFTISRDNAKNTVYLQMNSLKPEDTAVYYCAAADTYKMDYWGQGTQVTVSS” the “polyreactivity (PSR sort gate)” value was “low polyreactivity”.
With “QVQLVESGGGLVQAGGSLRLSCAASGFIFGYYAMGWYRQAPGKERELVAAISWSGVSTYYADSVKGRFTISSDNAKNTVDLQMNSLKPEDTAVYYCAVGYVLTGVFQARFDYWGQGTQVTVSS” the “polyreactivity (PSR sort gate)” value was “high polyreactivity”.
For “QVQLVESGGGLVQAGGSLRLSCAASGFIFGYYAMGWYRQAPRKERELVAAISQSTGSTYYADSVKGRFSNSRDNAKNTVYLQMNSLKPEDTAVYYCNAEGPEVTTWGYVYWDWGYGYWGQGTQVTVSS”, the “polyreactivity (PSR sort gate)” value was “low polyreactivity”.
For “QVQLVESGGGLVQAGGSLRLSCAASGFIFGYYTMGWYRQAPGKERELVASISSRGGSTFYADSVKGRFTISRDNAKNTVYLQMNSLKPEDTAVYYCAVRRGVYYYPYYYWGQGTQVTVSS”, the “polyreactivity (PSR sort gate)” value was “high polyreactivity”.
With “QVQLVESGGGLVQAGGSLRLSCAASGFIFGYYTMGWYRQAPGKEREVVAAISSSGGRTYYADSVKGRFTISRDNAKNTVYLQMNSLKPEDTAVYYCAKQNRGSEPAYDYWGQGTQVTVSS” the “polyreactivity (PSR sort gate)” value was “low polyreactivity”.
In the case of “QVQLVESGGGLVQAGGSLRLSCAASGFIFGYYVMGWSRQAPGKERELVAAISGSGGRTYYADSVKGRFTISRDNAKNTVYLQMNSLKPEDTAVYYCNAVAFYRDYNYWGQGTQVTVSS”, the “polyreactivity (PSR sort gate)” value is reported as “high polyreactivity”.
For “QVQLVESGGGLVQAGGSLRLSCAASGFIFHLYAMGWYRQAPGKERDLVAAIRISDGSTYYADSVKGRFTISRDNAKNSVYLQMNRLKPEDTAVYYCNVVYRYGGYNYWGQGTQVTVSS”, the “polyreactivity (PSR sort gate)” value was “high polyreactivity”.
For “QVQLVESGGGLVQAGGSLRLSCAASGFIFHSYDMGWYRPAPRKERELVASISRGGGSTYYADSVKGRFTISRDNAMNTVYLQMNSLKPEDTAVYDCSARVYSLGYGGDYWGQGTQVTVSS”, the “polyreactivity (PSR sort gate)” value was “high polyreactivity”.
In the case of “QVQLVESGGGLVQAGGSLRLSCAASGFIFHVYAMGWYRQAPGKEREFVAGISWRGGRTYYADSVKGRFTISRDNAKNTVYLLMNSLKPEDTAVYYCAALGLNAGGKFDYWGQGTQVTVSS”, the “polyreactivity (PSR sort gate)” value is reported as “high polyreactivity”.
For “QVQLVESGGGLVQAGGSLRLSCAASGFIFHVYAMGWYRQAPGKERELVARITSSGGNTFYADSVKGRFTISRDNAKNTVYLQMNSLKPEDTAVYYCAKSSIYTDYDYWGQGSQVTVSS”, the “polyreactivity (PSR sort gate)” value was “low polyreactivity”.
With “QVQLVESGGGLVQAGGSLRLSCAASGFIFIEYTMGWYRQAPGKERQLVAAISSGGNTYYADSVKGRFTISRDNAKNTVYLQMNSLKPEDTAVYYCNADNYAFYTQRPLDGSATYDYWGQGTQVTVSS” the “polyreactivity (PSR sort gate)” value was “low polyreactivity”.
In the case of “QVQLVESGGGLVQAGGSLRLSCAASGFIFIKYAMRCYRQAPGKERELVAAISFRGGRTNYADSVKGRFTISRDNAKNTVYLQMNSLKPEDTAVYYCAAETRDYSEGYYWGQGTQVTVSS”, the “polyreactivity (PSR sort gate)” value is reported as “high polyreactivity”.
In the case of “QVQLVESGGGLVQAGGSLRLSCAASGFIFIPNTMGWYRQAPGKERELVASGSTYYADSVKGRFTISRDNAKNTVYLQLNSLKPEDTAVYYCAARYHRYSSEFDYWGQGTQVTVSS”, the “polyreactivity (PSR sort gate)” value is reported as “low polyreactivity”.
With “QVQLVESGGGLVQAGGSLRLSCAASGFIFIQNDMGWYRQAPGKERAFFASISKDGGRTYYADSVKGRFTISRDNAKNTVYLQMNSLKPEDTAVYYCNTYPRGNWGNFVEQDYDYWGQGTQVTVSS” the “polyreactivity (PSR sort gate)” value was “low polyreactivity”.
For “QVQLVESGGGLVQAGGSLRLSCAASGFIFISNAMGWYRQAPGKERELVARISDTDRTHYADSVKGRFTISRDNAKNTVYLQMNSLKPEDTAVYYCATDQSLLDKVYYDVQYDYWGQGTQVTVSS”, the “polyreactivity (PSR sort gate)” value was “low polyreactivity”.
In the case of “QVQLVESGGGLVQAGGSLRLSCAASGFIFKGNAMGWSRQAPGKERELVAAISSRGGSTYYADSVKGRFTISRDNAKNTVYLQMNSLKPEDTAVYYCATRVYWRNDYWGQGTQVTVSS”, the “polyreactivity (PSR sort gate)” value is reported as “high polyreactivity”.
In the case of “QVQLVESGGGLVQAGGSLRLSCAASGFIFKINAMGWYRQAPGKERELVAAINWTGGNTYYADSVKGRFTISRDNAKNTVYLQMNSLKPEDTAVYYCAAEFDVGWTWDYYWGQGTQVTVSS”, the “polyreactivity (PSR sort gate)” value is reported as “high polyreactivity”.
In the case of “QVQLVESGGGLVQAGGSLRLSCAASGFIFKPNALGWYRQAPGKERELVAAITWGGDNTYYADSVKGRFTISRDNAKNTVYLQMNSLKPEDSAVYYCAAEWKFHSDASYIYDYWGQGTQVTVSS”, the “polyreactivity (PSR sort gate)” value is reported as “high polyreactivity”.
In the case of “QVQLVESGGGLVQAGGSLRLSCAASGFIFKSNAMGWDRQAPGKERELVAAISTSGGSTYYADSVKGRFTISRDNAKNTVYLQMNSLKPEDTAVYYCAKRPSRYYYRLDYWGQGTQVTVSS”, the “polyreactivity (PSR sort gate)” value is reported as “high polyreactivity”.
In the case of “QVQLVESGGGLVQAGGSLRLSCAASGFIFKSYAMGWYRPAPGKERELVAAISSGGTTNYADSVKGRFTISRDNANNTVYLQMNSLKPEDTAVYYCAAALHGHTFPFYYWGHGTQVTVSS”, the “polyreactivity (PSR sort gate)” value is reported as “low polyreactivity”.
For “QVQLVESGGGLVQAGGSLRLSCAASGFIFKSYAMGWYRQAPGQERELVAAISRSGSSTYYADSVKGRFTISRDNAKNTVYLLMNSLKPEDTAVYYCAKKGYRFIHFGYDYWGQGTQVTVSS”, the “polyreactivity (PSR sort gate)” value was “high polyreactivity”.
In the case of “QVQLVESGGGLVQAGGSLRLSCAASGFIFKSYTMGWYRQAPGKERELVAAITWSGDSTYADSVKGRFTISRDNAKNTVYLQMNSLKPEDTAVYYCAKNYAYLYYSWGQGTQVTVSS”, the “polyreactivity (PSR sort gate)” value is reported as “low polyreactivity”.
In the case of “QVQLVESGGGLVQAGGSLRLSCAASGFIFKYNVMGWYRQAPGKERELVAAIRGSGRTYYADSVKGRFTISRDNAKNTVYLQMNSLKPEDTAVYYCGADIQAYASRVYAGFDYWGQGTQVTVSS”, the “polyreactivity (PSR sort gate)” value is reported as “low polyreactivity”.
For “QVQLVESGGGLVQAGGSLRLSCAASGFIFKYYAMGWYRHAPGKERELVAAISRRGGSTFYADSVKGRFTISRDNAKNTVYLQMNSLKPEDTAVYYCAKYPQTLPIDVWTWIHDYWGQGTQVTVSS”, the “polyreactivity (PSR sort gate)” value was “high polyreactivity”.
In the case of “QVQLVESGGGLVQAGGSLRLSCAASGFIFLFNAMGWYRQAPGKERELVATNSSGGSTYYADSVKGRFTISLDNAKNTVYLQMTSLKPEDTAVYYCNAGPARTVYAQSSYVLYDYWGQGTQVTVSS”, the “polyreactivity (PSR sort gate)” value is reported as “low polyreactivity”.
With “QVQLVESGGGLVQAGGSLRLSCAASGFIFLGNAMGWYRPAPGKERDLVAAISSGGSTYADSVKGRFTISRDNAKYTVYLQMNSLKPEDTAVYYCAVDRAFRAQNYHEYDYWGQGTQVTVSS” the “polyreactivity (PSR sort gate)” value was “low polyreactivity”.
For “QVQLVESGGGLVQAGGSLRLSCAASGFIFLHYAMGWYRKAPGKERELVAGIDSSVDSTFYADSVKGRFTISRDNAKNTVYLQMNSLKPEDTAVYYCAKDPDLDYYLYYYWGQGTQVTVSS”, the “polyreactivity (PSR sort gate)” value was “low polyreactivity”.
In the case of “QVQLVESGGGLVQAGGSLRLSCAASGFIFLLYAMGWYRQAPGKERELVAAIDTDTSTNYADSVKGRFTISRDNAKNTVYLQMNSLKPEDTAVYYCAREEPGVSLGVDYDYWGQGTQVTVSS”, the “polyreactivity (PSR sort gate)” value is reported as “low polyreactivity”.
With “QVQLVESGGGLVQAGGSLRLSCAASGFIFLPYVMGWYRQAPGKERELVAAISGGGGITYYADSVKGRFTISRDNAKNTVYLQMNSLKPEDTAVYYCAADDLHWLNSKRYSGRDYWGQGTQVTVSS” the “polyreactivity (PSR sort gate)” value was “low polyreactivity”.
For “QVQLVESGGGLVQAGGSLRLSCAASGFIFLWNAMAWYRQAPGKELDLVAAINRGTSTNYADSVKGRFTISRDNAKNTVYLQMNSLKPEDTAVYYCAVSVLPWQMYSESYAEYDYWGQGTQVTVSS”, the “polyreactivity (PSR sort gate)” value was “low polyreactivity”.
With “QVQLVESGGGLVQAGGSLRLSCAASGFIFLYAMGWYRQAPGKERELVAAISWSDTSTYYADSVKGRFTISRDNAKNTVYLQMNSLKPEDTAVYYCNAETWNYGDYDYWGQGTQVTVSS” the “polyreactivity (PSR sort gate)” value was “high polyreactivity”.
With “QVQLVESGGGLVQAGGSLRLSCAASGFIFLYYAMGWYRQAPGKERELVAAITTRGGRTYYADSVKGRFTISRDNAKNTVYLQMNSLKPEDTAVYYCAVQVSWSYYRYGYWGQGTQVTVSS” the “polyreactivity (PSR sort gate)” value was “low polyreactivity”.
For “QVQLVESGGGLVQAGGSLRLSCAASGFIFNAYAMGWYRQAPGKERELVAAITFRTTSTYYADSVKGRFTISRDNAKNTVYLQMNSLKPEDTAVYYCAALWIYSGWRYDYWGQGTQVTVSS”, the “polyreactivity (PSR sort gate)” value was “high polyreactivity”.

Reference: the nanobody polyreactivity screen of Harvey et al. (2022)
